Data on one sequence can be found in US5648211.

The test system of the data set is BsrI. Put plainly: cleavage_in_vitro. The note with it: PS at A in filled-in regions; SDA cycle turnover with Bst polymerase; 60 C, 6 mM MgCl2, 50 mM KCl, pH 7.6.

Sequence “CCACCTCTGACTTGAGCGTCCCAGTGTCAATACGGCGGAGCCTATGGAGTAACGCC / GCAAAAGGCCAGGAACCGATAAAAGGATGCGTTGCTGGCGTTACTCCATAGGCTCCG [linear SDA BsrI duplex (filled in to 92 bp)]” registered an activity of 1 min⁻¹.
